Results from PMC5727386, “Structural and functional dissection of the DH and PH domains of oncogenic Bcr-Abl tyrosine kinase” (Nature Communications, 2017).

Assays:
[1] = molecular target: T1, biotinylated Bcr-Abl DH-PH tandem domain (Avi-tag) (UniProt P11274 487-893, biotin on the Avi-tag); experiment: flow cytometry on cells; monobody displayed on yeast surface; biotinylated target 10 nM to 1 uM in TBS with 0.1% BSA, 30 min at RT; streptavidin-DyLight650; 1:1 binding model; apparent Kd; conditions: one partner purified
T1 construct: Bcr part of Bcr-Abl p210, DH-PH tandem domain, residues 487-893; Cloned in pHBT1, which for the monobodies is said to give an N-terminal His- and Avi-tag followed by a TEV site; also called biotinylated DH-PH domain; source: E. coli BL21(DE3), co-expressed with BirA and 50 uM biotin, purified; not shown: Avi-tag, N-terminal, kept
T1 sequence (looked up): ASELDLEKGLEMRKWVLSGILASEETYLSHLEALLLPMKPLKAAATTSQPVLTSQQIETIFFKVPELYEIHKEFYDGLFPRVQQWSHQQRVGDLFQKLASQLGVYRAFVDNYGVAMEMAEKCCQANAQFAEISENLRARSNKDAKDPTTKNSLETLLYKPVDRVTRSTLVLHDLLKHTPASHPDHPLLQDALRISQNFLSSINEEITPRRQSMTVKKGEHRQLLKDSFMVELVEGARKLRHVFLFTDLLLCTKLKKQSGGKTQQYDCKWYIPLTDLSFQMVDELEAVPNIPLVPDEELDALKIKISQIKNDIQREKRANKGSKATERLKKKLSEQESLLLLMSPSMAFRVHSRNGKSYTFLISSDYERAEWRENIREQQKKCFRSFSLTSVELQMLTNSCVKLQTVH

[2] = molecular target: T2, Bcr-Abl DH domain (residues 487-702); experiment: ITC; monobody (200 uM stock) titrated to the DH domain (20 uM) at 25 °C; 25 mM HEPES pH 7.5, 150 mM NaCl, 0.5 mM TCEP; 1:1 binding model; conditions: both partners purified
T2 construct: Bcr part of Bcr-Abl p210, Dbl-homology domain, residues 487-702; 15N-labelled for the NMR experiments; also called Bcr DH; source: E. coli Rosetta(DE3), purified (Ni-NTA, TEV cleavage, reverse Ni, SEC); not shown: His-tag, N-terminal, cleaved
T2 chain: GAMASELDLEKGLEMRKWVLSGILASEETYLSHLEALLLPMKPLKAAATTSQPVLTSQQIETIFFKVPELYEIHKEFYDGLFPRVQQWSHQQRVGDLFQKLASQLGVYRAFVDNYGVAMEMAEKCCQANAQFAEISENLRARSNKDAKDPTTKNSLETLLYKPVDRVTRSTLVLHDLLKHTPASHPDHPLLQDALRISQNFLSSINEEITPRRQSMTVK

[3] = molecular target: T3, biotinylated Bcr-Abl PH domain (Avi-tag) (UniProt P11274 704-893, biotin on the Avi-tag); experiment: flow cytometry on cells; monobody displayed on yeast surface; biotinylated target 10 nM to 1 uM in TBS with 0.1% BSA, 30 min at RT; streptavidin-DyLight650; 1:1 binding model; apparent Kd; conditions: one partner purified
T3 construct: Bcr part of Bcr-Abl p210, Pleckstrin-homology domain, residues 704-893; Cloned in pHBT1; the limits are those stated for the PH domain construct; also called biotinylated PH; source: E. coli BL21(DE3), co-expressed with BirA and 50 uM biotin, purified; not shown: Avi-tag, N-terminal, kept
T3 sequence (looked up): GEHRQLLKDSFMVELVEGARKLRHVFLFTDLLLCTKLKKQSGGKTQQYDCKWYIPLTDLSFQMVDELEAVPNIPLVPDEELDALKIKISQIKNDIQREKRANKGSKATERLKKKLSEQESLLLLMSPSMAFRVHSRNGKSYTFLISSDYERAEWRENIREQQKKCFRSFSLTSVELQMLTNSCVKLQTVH

B1: monobody Mb(Bcr-DH_4), displayed on yeast surface (designed binder)
chain: VSSVPTKLEVVAATPTSLLISWDAPAVTVDLYVITYGETGGNSPVQEFEVPGSKSTATISGLKPGVDYTITVYAGSYAYEYYWGPSPISINYRT
notes: monobody on the fibronectin type III scaffold, side-and-loop library
Kd [1]: 20 ± 7 nM

B2: monobody Mb(Bcr-DH_4), purified (designed binder)
chain: VSSVPTKLEVVAATPTSLLISWDAPAVTVDLYVITYGETGGNSPVQEFEVPGSKSTATISGLKPGVDYTITVYAGSYAYEYYWGPSPISINYRT
notes: monobody on the fibronectin type III scaffold, side-and-loop library; also called Mb(DH_4); S10; source: E. coli BL21(DE3), purified; not shown: His-tag, N-terminal, cleaved; Avi-tag, N-terminal, cleaved
Kd [2]: 14.5 ± 8.6 nM
stoichiometry N [2]: 0.94

B3: monobody Mb(Bcr-DH_3), displayed on yeast surface (designed binder)
chain: VSSVPTKLEVVAATPTSLLISWDAPAVTVDLYVITYGETGGNSPVQAFEVPGSKSTATISGLKPGVDYTITVYAGSETYRGYWSPISINYRT
notes: as for B1
Kd [1]: 18 ± 5 nM

B4: monobody Mb(Bcr-DH_3), purified (designed binder)
chain: VSSVPTKLEVVAATPTSLLISWDAPAVTVDLYVITYGETGGNSPVQAFEVPGSKSTATISGLKPGVDYTITVYAGSETYRGYWSPISINYRT
notes: monobody on the fibronectin type III scaffold, side-and-loop library; also called Mb(DH_3); source: E. coli BL21(DE3), purified; not shown: His-tag, N-terminal, cleaved; Avi-tag, N-terminal, cleaved
Kd [2]: 2.1 nM
stoichiometry N [2]: 0.78

B5: monobody Mb(Bcr-PH_3), displayed on yeast surface (designed binder)
chain: VSSVPTKLEVVAATPTSLLISWDAPAVTVVFYVITYGETGGNSPVQEFTVPGSKSTATISGLKPGVDYTITVYAEYYGYSGWQSPISINYRT
notes: as for B1
Kd [3]: 63 ± 12 nM

B6: monobody Mb(Bcr-PH_2), displayed on yeast surface (designed binder)
chain: VSSVPTKLEVVAATPTSLLISWDAPAVTVVFYVITYGETGGNSPVQEFTVPGSKSTATISGLKPGVDYTITVYAEYYGYTSSPISINYRT
notes: as for B1
Kd [3]: 46 ± 10 nM
